Results published in PMC6828947, “The Cotton GhWRKY91 Transcription Factor Mediates Leaf Senescence and Responses to Drought Stress in Transgenic Arabidopsis thaliana”.

B1: GhAPX1 promoter W-box probe (dsDNA)
DNA 1: TCCCCGACGTTCCGACAAGTTTTGACTATTTTATTTTCTTAAAATAAAAAGC
DNA 2: GCTTTTTATTTTAAGAAAATAAAATAGTCAAAACTTGTCGGAACGTCGGGGA
B2: GhWRKY17 promoter W-box probe (dsDNA)
DNA 1: AATTTCAAACGGCTAATCCCCACCTTTTGACCTTATCTCTTGTCAGTGACCCA
DNA 2: TGGGTCACTGACAAGAGATAAGGTCAAAAGGTGGGGATTAGCCGTTTGAAATT
B3: GhWRKY17 promoter W-box probe, unlabelled competitor (dsDNA)
DNA 1: B2 DNA 1
DNA 2: B2 DNA 2
B4: GhWRKY27a promoter W-box probe (dsDNA)
DNA 1: GCGACTTGGTCAGCAATTGGAGTTTTGACCTTACCTCACTCTTCAGTCCAC
DNA 2: GTGGACTGAAGAGTGAGGTAAGGTCAAAACTCCAATTGCTGACCAAGTCGC
B5: GhWRKY68 promoter W-box probe (dsDNA)
DNA 1: GCACTGTTCAATATCCGTACAAGTGGTTGACCTACAATTGCCCGTCGATCC
DNA 2: GGATCGACGGGCAATTGTAGGTCAACCACTTGTACGGATATTGAACAGTGC

What was measured:
[1] = target: T1, GhWRKY91 (Gossypium hirsutum (CCRI10), UniProt A0A068LD65 1-273); assay: EMSA; LightShift Chemiluminescent EMSA Kit (Thermo Scientific); buffer, salt, pH and temperature not stated; conditions: protein: recombinant; tags: N-terminal GST, removed by digestion after purification; label: biotin end label
[2] = target: T1, GhWRKY91; assay: competition; excess unlabelled probe against labelled GhWRKY17 probe; LightShift Chemiluminescent EMSA Kit (Thermo Scientific); buffer, salt, pH and temperature not stated; conditions: protein: recombinant; tags: N-terminal GST, removed by digestion after purification

T1 sequence (A0A068LD65 entry or part of it): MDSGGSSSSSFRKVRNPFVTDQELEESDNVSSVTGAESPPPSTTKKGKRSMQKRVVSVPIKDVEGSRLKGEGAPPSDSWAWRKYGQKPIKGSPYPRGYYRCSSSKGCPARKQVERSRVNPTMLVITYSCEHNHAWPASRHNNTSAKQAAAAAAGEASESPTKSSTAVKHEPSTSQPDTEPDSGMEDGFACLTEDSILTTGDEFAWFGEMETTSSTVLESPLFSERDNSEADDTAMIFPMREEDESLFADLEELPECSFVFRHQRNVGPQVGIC

Row | Binder | binding result [1] | binding result [2]
1 | B1 | no binding | 
2 | B2 | binds | 
3 | B3 |  | binds
4 | B4 | no binding | 
5 | B5 | no binding | 
